Laboratory results: the supplement of paper PMC10567573

B1: TMEM106C (parent)
chain: SEQLVNFTGKAEMGGPFSYVYFFC

Variants of: B1
Experiment: protein stability index of a GFP-peptide fusion (GPS, HEK-293T) (PSI 1-6); higher = more stable
Conditions: c terminus: a fixed tail appended
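Note: lentivirally expressed fusions sorted by FACS into six bins by GFP to DsRed ratio, PSI derived from sequencing read proportions per bin multiplied by bin number.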

Protein stability index: each site, then its substitutions
V20: R 1.68, N 2.69, G 2.35, F 2.17, M 2.65, L 2.07, E 2.13, S 2.56, H 2.53, T 2.77, K 1.55, P 1.98, Q 2.65, Y 2.53, I 2.7, W 1.79
F22: E 1.88, A 2.62, S 2.12, I 1.96, T 3.71, Y 2.78, G 2.86, M 3.04, R 2.28, N 1.79, P 2.06, H 3.04, C 2.58, W 2.21, V 3.27, K 1.84, Q 2.07, D 2.33
C24: S 2.23, G 2.53, M 2.82, I 3.26, V 3.49, R 2.09, K 2.07, T 3.96, E 2.29, Q 1.54, A 3.11, D 2.36, N 1.89, P 1.73, H 3.25, W 3.35, F 3.13, Y 3.05
F23: V 3.22, T 2.05, D 1.56, L 2.08, Q 2.9, G 3.03, E 2.15, H 2.28, W 3.85, A 2.45, C 2.54, S 3.45, N 1.35, R 4.48, K 1.79, I 2.42, P 1.51, Y 3.3
Y21: N 2.82, T 3.31, K 2.06, S 2.44, R 1.49, C 2.42, Q 2.15, H 2.26, V 3.6, G 1.84, E 1.42, F 3.1, D 1.89, M 3.64, A 3.06, L 3.93, P 1.49
